Our source for the transcriptional activity of PGC-1β in a cotransfection assay (luciferase, BOSC cells, FIG. 9A) values is patent US20030124598A1.

The target in the assay is GAL4-PGC-1β (yeast; mouse) (UniProt P04386). In words: cell-based or functional assay.

For Flag-tagged HCF, the transcriptional activity of PGC-1β in a cotransfection assay (luciferase, BOSC cells, FIG. 9A) was determined as 3 fold.
